Results taken from patent US20040248211A1, “ICAM-related protein” (priority 1992, published 2004).
Residue numbers refer to the chain shown, from its start.

T1: baculovirus-produced soluble human ICAM-R (Homo sapiens, UniProt P32942)
T1 sequence (P32942 30-485 limits assumed): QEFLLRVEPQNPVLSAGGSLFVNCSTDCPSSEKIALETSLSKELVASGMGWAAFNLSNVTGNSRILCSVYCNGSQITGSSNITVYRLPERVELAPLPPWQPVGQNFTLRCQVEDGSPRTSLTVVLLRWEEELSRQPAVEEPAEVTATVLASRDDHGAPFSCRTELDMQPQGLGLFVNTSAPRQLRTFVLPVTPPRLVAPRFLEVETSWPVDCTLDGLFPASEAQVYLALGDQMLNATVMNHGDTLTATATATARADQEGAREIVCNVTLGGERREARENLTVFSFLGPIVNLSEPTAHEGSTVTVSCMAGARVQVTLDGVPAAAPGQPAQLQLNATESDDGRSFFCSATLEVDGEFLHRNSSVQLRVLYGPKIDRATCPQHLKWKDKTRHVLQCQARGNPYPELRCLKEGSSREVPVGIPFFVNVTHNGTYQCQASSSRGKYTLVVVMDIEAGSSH

B1: MuVHVS/MuVK: chimeric ICR-8.1: murine VH with Val2, Ser7 and murine VK, human IgG4/kappa constant regions (antibody, V domains shown)
VH: EVQLQQSGPELVKPGASVKISCKASGYSFTDCIILWVKQSHGKGLEWIGKINPYFGTTTYNLKFKGKATLTVDKSSSTAHMQLNSLTSEDSAVYYCARKEAYPDAMDYWGQGTSVTVSS
VL: DAVMTQTPLSLPVSLGDQASISCRSSQSLVHSNGDTYLHWYLQKPGQSPQLLIYKVSNRFSGVPDRFSGSGSGTDFTLKLSRVEAEDLGVYFCSQSTHVPYTFGGGTKLEIK
B2: HuVHV/MuVK: ICR-8.1 humanized VH with Thr28 and Val71, murine VK (antibody, V domains shown)
VH: QVQLVQSGAEVKKPGASVKVSCKASGYTFTDCIILWVRQAPGQGLEWMGKINPYFGTTTYNLKFKGRVTITVDTSTSTAYMELSSLRSEDTAVYYCARKEAYPDAMDYWGQGTLVTVSS
VL: B1 VL
B3: MuVHVST/MuVK: chimeric ICR-8.1, MuVHVS heavy chain with Thr28, murine VK (antibody, V domains shown)
VH: B1 VH with S28T
VL: B1 VL
B4: HuVH/MuVK: ICR-8.1 humanized VH (Ala71) with murine VK (antibody, V domains shown)
VH: B2 VH with V72A
VL: B1 VL
B5: miJuVH/MuVK: ICR-8.1 miHuVH (Ala60, Gln61, Gln64) heavy chain with murine VK (antibody, V domains shown)
VH: B2 VH with N61A, L62Q, K65Q, V72A
VL: B1 VL
B6: Tyr498Phe: ICAM-R cytoplasmic domain point mutant (protein, UniProt P32942 30-547, looked up, variant Y498F)
Intercellular adhesion …: QEFLLRVEPQNPVLSAGGSLFVNCSTDCPSSEKIALETSLSKELVASGMGWAAFNLSNVTGNSRILCSVYCNGSQITGSSNITVYRLPERVELAPLPPWQPVGQNFTLRCQVEDGSPRTSLTVVLLRWEEELSRQPAVEEPAEVTATVLASRDDHGAPFSCRTELDMQPQGLGLFVNTSAPRQLRTFVLPVTPPRLVAPRFLEVETSWPVDCTLDGLFPASEAQVYLALGDQMLNATVMNHGDTLTATATATARADQEGAREIVCNVTLGGERREARENLTVFSFLGPIVNLSEPTAHEGSTVTVSCMAGARVQVTLDGVPAAAPGQPAQLQLNATESDDGRSFFCSATLEVDGEFLHRNSSVQLRVLYGPKIDRATCPQHLKWKDKTRHVLQCQARGNPYPELRCLKEGSSREVPVGIPFFVNVTHNGTYQCQASSSRGKYTLVVVMDIEAGSSHFVPVFVAVLLTLGVVTIVLALMYVFREHQRSGSYHVREESTFLPLTSMQPTEAMGEEPSRAE
B7: Ser496Ala: ICAM-R cytoplasmic domain point mutant (protein, UniProt P32942 30-547, looked up, variant S496A)
Intercellular adhesion …: B6 Intercellular adhesion … with S496A, F498Y
B8: Leu499Ala: ICAM-R cytoplasmic domain point mutant (protein, UniProt P32942 30-547, looked up, variant L499A)
Intercellular adhesion …: B6 Intercellular adhesion … with F498Y, L499A
B9: Tyr490Phe: ICAM-R cytoplasmic domain point mutant (protein, UniProt P32942 30-547, looked up, variant Y490F)
Intercellular adhesion …: B6 Intercellular adhesion … with Y490F, F498Y

Columns and labels:
[1] = target: T1, baculovirus-produced soluble human ICAM-R; test: ELISA binding of recombinant ICR-8.1 antibodies; conditions: humanized/chimeric ICR-8.1 chain combinations, human IgG4/kappa
J77.50.3 cell lines [2] = test: Cell spreading on ICR-1.1 coated plastic; assay type: cell-based, human; conditions: 20 minutes at 37° C.
Description: To ascertain additional functional consequences of ICAM-R carboxyl terminal deletions, the Jurkat cell lines expressing the. ICAM-R variants described above were tested for the ability to adhere and spread on antibody coated plastic or to undergo antibody-mediated aggregation. Bacterial petri plates were coated with 50 μl drops of ICR-1.1 or w6/32 (10 μg/ml) (anti-MHC class I isotype matched control monoclonal antibody) in PBS for 120 minutes at 37° C. The plastic was rinsed twice prior to spotting 50 μl drops of J77.50.3 cell lines. Duplicate cell lines expressing these proteins at equivalent levels were tested. After 20 minutes at 37° C. the plate was flooded with 2% glutaraldehyde in PBS and incubated for 30 minutes to fix adherent cells. Fixed cells were rinsed twice with PBS and scored visually for the ability to flatten and spread. […] Weyrich et al., J. Clin. Invest., 95: 2297-2303 (1995) recently described the effect of a ICR-1.1 coated plastic surface on normal monocytes from peripheral blood. After two hours, these cells flattened down and spread with a similar overall morphology to that seen with the haFL expressing J77.50.3 cell line.

J77.50.3 cells = test: IL-2 induction in J77.50.3 lines expressing ICAM-R variants; assay type: cell-based, human; conditions: for IL-2 Induction (Fold Stimulation): repeated experiments, Vector 0.52; for fold increase of IL-2 released (ICR-1.1 plus OKT3 divided by OKT3 alone): vector control 0.7 fold
Description: This dose of antibody alone provides minimal signalling for IL-2 release. The OKT3 treatment was removed and replaced with buffer alone or anti-ICAM-R (ICR-1.1) (10 ug/ml in PBS-D) and incubated at 37° C. for at least 2 hours. Monoclonal antibody coating was done in replicates of two or more wells and pooled to provide sufficient quantities of conditioned media for ELISA and/or bioassay. Two hundred fifty thousand Jurkat cells or transfectants thereof, were placed into antibody coated wells or buffer coated negative control wells in 0.1 ml of RPMI complete medium. Following incubation of about 16-24 hrs at 37° C. in a humidified atmosphere containing 5% CO2, the medium was transferred to a fresh 96 well round bottom plate, spun to pellet cells carried over and transferred to a fresh plate. Samples were frozen and stored at −70° C. IL-2 ELISAs were performed using commercially available kits (Biosource Intl. Co., Carmarille, Calif.) by making serial dilutions of the samples.
Experiments were performed using two independently isolated cell lines for each plasmid construct or the vector alone. Stable lines expressing similar levels of ICAM-R variants, as determined by indirect flow cytometry, were chosen for functional studies. Cells were costimulated with plate immobilized monoclonal antibodies ICR-1.1 and OKT3, and IL-2 release from the lines was quantitated by ELISA as previously described in Example 25C. Results were expressed as fold increase of IL-2 released from cells plated onto co-immobilized ICR-1.1 (10 μg/ml) plus OKt3 (1 μg/ml) divided by release from OKT3 ([…]) alone. The full length ICAM-R protein (haFL) gave 3.1 fold induction. The deletions gave the following fold inductions: haCTΔ505 induction was 1.5 fold, haCTΔ493 induction was 1.3 fold, haCTΔ484 was 0.8 fold. Vector control induction was 0.7 fold. […] In addition, removal of the residues 505-518 leads to the most significant reduction in co-stimulatory responsiveness. This implies that residues 505-518 play a relatively larger role in the response as compared to residues 484-505.

J77.50.3 cell lines [3] = test: ICR-1.1 induced aggregation of J77.50.3 lines; assay type: cell-based, human; conditions: for ICR-1.1 induced aggregation: ICR-1.1 10 μg/ml, 1 and 24 hours; for Percent Aggregation: repeated experiments, Vector 17
Description: One of these monoclonal antibodies (ICR-1.1) was used to induce aggregation of the J77.50.3 cell lines expressing either full length ICAM-R (haFL) or carboxy terminal variants of ICAM-R. ICR-1.1 was added to 200,000 cells at 10 μg/ml in 96 well plates and incubated 37° C. At 1 and 24 hours after incubation the wells were visually screened for aggregates.

| Molecule | binding to ICAM-R (ELISA), recombinant ICR-8.1 antibodies [1] | spreading on ICR-1.1 coated plastic (J77.50.3 cell lines [2]) | IL-2 Induction (Fold Stimulation) (J77.50.3 cells) | ICR-1.1 induced aggregation (J77.50.3 cell lines [3]) | fold increase of IL-2 released (ICR-1.1 plus OKT3 divided by OKT3 alone) (J77.50.3 cells) | Percent Aggregation (J77.50.3 cell lines [3]) [%] |
| --- | --- | --- | --- | --- | --- | --- |
| B1 | equivalence in binding to ICAM-R | – | – | – | – | – |
| B2 | equivalence in binding to ICAM-R | – | – | – | – | – |
| B3 | equivalence in binding to ICAM-R | – | – | – | – | – |
| B4 | equivalence in binding to ICAM-R | – | – | – | – | – |
| B5 | equivalence in binding to ICAM-R | – | – | – | – | – |
| B6 | – | spread onto the ICR-1.1 coated plastic surface | 1.6 Fold | aggregation competent | – | – |
| B7 | – | Neither ICAM-R mutation affected | ˜6 Fold | Neither ICAM-R mutation affected | Neither ICAM-R mutation affected IL-2 secretion | 60 |
| B8 | – | Neither ICAM-R mutation affected | ˜6 Fold | Neither ICAM-R mutation affected | Neither ICAM-R mutation affected IL-2 secretion | 60 |
| B9 | – | incapable of flattening down onto the ICR-1.1 coated surface | 1.8 Fold | incapable of forming inducible aggregates | – | – |
